Measured values as given in publication PMC4792234, “Modulation of MICAL Monooxygenase Activity by its Calponin Homology Domain: Structural and Mechanistic Insights” (Scientific Reports, 2016).

T1: MICALMO-CH (mMICAL-1 residues 2-615) (Mus musculus, UniProt Q8VDP3, Q78K)
T1 construct: gene Mical1; MO plus CH domains, residues 2-615, Q78K to remove a protease site; extra Gly from vector; N-terminal His-tag removed with TEV; E. coli BL21, codon-optimised
T1 sequence (Q8VDP3 2-615 Q78K): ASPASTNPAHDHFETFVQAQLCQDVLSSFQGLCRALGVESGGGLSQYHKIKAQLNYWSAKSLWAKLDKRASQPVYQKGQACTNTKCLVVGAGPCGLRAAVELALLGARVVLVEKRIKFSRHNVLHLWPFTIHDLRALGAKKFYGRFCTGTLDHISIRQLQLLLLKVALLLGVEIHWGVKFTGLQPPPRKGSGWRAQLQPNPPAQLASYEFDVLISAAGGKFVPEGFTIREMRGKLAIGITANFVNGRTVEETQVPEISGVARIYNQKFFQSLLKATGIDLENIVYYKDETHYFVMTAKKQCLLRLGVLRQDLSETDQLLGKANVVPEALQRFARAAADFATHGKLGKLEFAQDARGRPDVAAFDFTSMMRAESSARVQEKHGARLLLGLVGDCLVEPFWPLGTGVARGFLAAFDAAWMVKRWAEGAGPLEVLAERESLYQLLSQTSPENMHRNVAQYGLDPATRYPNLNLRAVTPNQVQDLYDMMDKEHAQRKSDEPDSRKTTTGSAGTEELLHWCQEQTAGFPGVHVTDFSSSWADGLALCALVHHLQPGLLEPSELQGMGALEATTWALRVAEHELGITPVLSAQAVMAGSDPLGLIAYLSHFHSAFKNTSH

B1: MICALMO-CH (mMICAL-1 residues 2-615) (Mus musculus; Q78K) (protein)
chain: T1 sequence (Q8VDP3 2-615 Q78K)
notes: MO plus CH domains, residues 2-615, Q78K to remove a protease site; extra Gly from vector; N-terminal His-tag removed with TEV; E. coli BL21, codon-optimised
B2: MICALMO (mouse MICAL-1 MO domain, residues 1-484) (Mus musculus) (protein)
chain: MASPASTNPAHDHFETFVQAQLCQDVLSSFQGLCRALGVESGGGLSQYHKIKAQLNYWSAKSLWAKLDKRASQPVYQQGQACTNTKCLVVGAGPCGLRAAVELALLGARVVLVEKRIKFSRHNVLHLWPFTIHDLRALGAKKFYGRFCTGTLDHISIRQLQLLLLKVALLLGVEIHWGVKFTGLQPPPRKGSGWRAQLQPNPPAQLASYEFDVLISAAGGKFVPEGFTIREMRGKLAIGITANFVNGRTVEETQVPEISGVARIYNQKFFQSLLKATGIDLENIVYYKDETHYFVMTAKKQCLLRLGVLRQDLSETDQLLGKANVVPEALQRFARAAADFATHGKLGKLEFAQDARGRPDVAAFDFTSMMRAESSARVQEKHGARLLLGLVGDCLVEPFWPLGTGVARGFLAAFDAAWMVKRWAEGAGPLEVLAERESLYQLLSQTSPENMHRNVAQYGLDPATRYPNLNLRAVTPNQVQDLYD
notes: isolated N-terminal FAD monooxygenase domain, residues 1-484 of 1048

Key:
[1] = biological target: T1, MICALMO-CH (mMICAL-1 residues 2-615); assay: X-ray crystallography, […] and […] Å; format: binding; details: oxidised FAD in the MO domain; two crystal forms
[2] = substrate: NC(=O)C1=CN([C@@H]2O[C@H](COP(=O)(O)OP(=O)(O)OC[C@H]3O[C@@H](n4cnc5c(N)ncnc54)[C@H](OP(=O)(O)O)[C@@H]3O)[C@@H](O)[C@H]2O)C=CC1; assay: purified protein; format: biochemical, Mus musculus; details: no F-actin, O2 as acceptor, 5 mM Tris-HCl pH 8.0, 50 mM KCl, 2 mM MgCl2, 0.2 mM CaCl2, 0.5 mM DTT, 1 mM ATP, 600 nM enzyme

| Molecule | X-ray crystallography, 2.31 and 2.88 Å [1] | Km [2] | kcat [2] |
| --- | --- | --- | --- |
| Cc1cc2nc3c(=O)[nH]c(=O)nc-3n(C[C@H](O)[C@H](O)[C@H](O)COP(=O)(O)OP(=O)(O)OC[C@H]3O[C@@H](n4cnc5c(N)ncnc54)[C@H](O)[C@@H]3O)c2cc1C [FAD] | In both crystal forms the FAD cofactor is oxidized and accessible through two openings | – | – |
| B1 | – | 37.7 ± 8.4 µM | 1.7 ± 0.5 s⁻¹ |
| B2 | – | 28.8 ± 2.2 µM | 0.68 ± 0.02 s⁻¹ |
